In general, Kd refers to the equilibrium constant for the complex coming apart.

Drawing on paper PMC5437309, this text covers Kd and ratio of pulldown, lit-state mutant against dark-state mutant for 2 substances.

Assay [1] has as its target JNK (Homo sapiens) (UniProt P45983). The following applies: cited from earlier work.
Assay [2] addresses GST-JNK1α1 (UniProt P45983). The experiment in a line: pull-down; GST-JNK isoform (2 μg) or unfused GST on glutathione beads, rotated 1 h at +4 °C with cleared 293T lysate holding the luciferase fusion (7,000 units), low-salt buffer with 0.5% Igepal, washed three times; luciferase on beads as per cent of input.

Consider JIP peptide (from UniProt Q9UQF2), for which the Kd in assay [1] was 800 nM.
Consider “luciferase-fused OptoJNKi.lsm (AsLOV2Jα I539E-JIP11) (from UniProt Q9UQF2 157-167) (designed binder)”, for which the ratio of pulldown, lit-state mutant against dark-state mutant in assay [2] was 30 fold.
